Test results taken from the Immune Epitope Database (IEDB).

Tests used:
Test in all cases: IEDB peptide-MHC binding, purified MHC/competitive/radioactivity; filed as Kd, often an IC50 or EC50 that approximates it; ≥ and ≤ were set here for values at or beyond the usual limits of such assays
HLA-A*31:01 = molecular target: HLA-A*31:01
HLA-A*11:01 = molecular target: HLA-A*11:01
HLA-A*68:01 = molecular target: HLA-A*68:01
HLA-A*03:01 = molecular target: HLA-A*03:01
HLA-A*33:01 = molecular target: HLA-A*33:01
[1] = source organism: Dengue virus 4 Philippines/H241/1956
[2] = source organism: Dengue virus 1 Brazil/97-11/1997
[3] = source organism: Vaccinia virus WR
[4] = source organism: SARS coronavirus Tor2
[5] = source organism: Lassa virus Josiah
[6] = source organism: Dengue virus 3 Martinique/1243/1999
[7] = source organism: Dengue virus 3 Sri Lanka/1266/2000
[8] = source organism: Dengue virus 2 Jamaica/1409/1983
[9] = source organism: Mammarenavirus juninense

AAQRRGRIGR
Kd (HLA-A*31:01; [1]): 2.16 nM

AIKVLRGFKK
Kd (HLA-A*11:01; [2]): 817 nM

ALFMYYAKR
Kd (HLA-A*31:01; [3]): 0.449 nM
Kd (HLA-A*68:01; [3]): 943 nM
Kd (HLA-A*03:01; [3]): 12.3 nM
Kd (HLA-A*33:01; [3]): 32.5 nM
Kd (HLA-A*11:01; [3]): 66.1 nM

ASTISWMMK
Kd (HLA-A*31:01; [3]): 1820 nM
Kd (HLA-A*68:01; [3]): 588 nM
Kd (HLA-A*03:01; [3]): 31.5 nM
Kd (HLA-A*33:01; [3]): ≥ 38900 nM
Kd (HLA-A*11:01; [3]): 0.346 nM

ATSTRHPSK
Kd (HLA-A*31:01; [4]): 623 nM
Kd (HLA-A*68:01; [4]): 275 nM
Kd (HLA-A*03:01; [4]): 0.599 nM
Kd (HLA-A*33:01; [4]): ≥ 77700 nM
Kd (HLA-A*11:01; [4]): 9.8 nM

ATVVIGTSK
Kd (HLA-A*31:01; [4]): 1320 nM
Kd (HLA-A*68:01; [4]): 101 nM
Kd (HLA-A*33:01; [4]): ≥ 77700 nM

CIFAFIDFSK
Kd (HLA-A*31:01; [3]): 136 nM
Kd (HLA-A*68:01; [3]): 46.1 nM
Kd (HLA-A*03:01; [3]): 18.4 nM
Kd (HLA-A*33:01; [3]): 64.6 nM
Kd (HLA-A*11:01; [3]): 9.02 nM

CSKHMDARY
Kd (HLA-A*31:01; [3]): ≥ 45200 nM
Kd (HLA-A*68:01; [3]): 18700 nM
Kd (HLA-A*03:01; [3]): 19100 nM
Kd (HLA-A*33:01; [3]): ≥ 77700 nM
Kd (HLA-A*11:01; [3]): 10100 nM

CTSQILLMR
Kd (HLA-A*68:01; [2]): 16.7 nM

DAKNDDWKKY
Kd (HLA-A*31:01; [3]): ≥ 70000 nM
Kd (HLA-A*68:01; [3]): ≥ 70200 nM
Kd (HLA-A*03:01; [3]): ≥ 70100 nM
Kd (HLA-A*33:01; [3]): ≥ 70000 nM
Kd (HLA-A*11:01; [3]): ≥ 69800 nM

DIDILQTNSR
Kd (HLA-A*31:01; [3]): 711 nM
Kd (HLA-A*68:01; [3]): 839 nM
Kd (HLA-A*03:01; [3]): 63.8 nM
Kd (HLA-A*33:01; [3]): 314 nM
Kd (HLA-A*11:01; [3]): ≥ 27300 nM

DQYKDLCHMH
Kd (HLA-A*31:01; [5]): ≥ 70000 nM
Kd (HLA-A*68:01; [5]): ≥ 70100 nM
Kd (HLA-A*03:01; [5]): ≥ 70000 nM
Kd (HLA-A*33:01; [5]): ≥ 70000 nM
Kd (HLA-A*11:01; [5]): ≥ 69700 nM

DSALTLHWFR
Kd (HLA-A*68:01; [1]): 13.1 nM
Kd (HLA-A*33:01; [1]): 3.27 nM

DTEDIVSDSK
Kd (HLA-A*31:01; [3]): 15800 nM
Kd (HLA-A*68:01; [3]): 201 nM
Kd (HLA-A*03:01; [3]): 7660 nM
Kd (HLA-A*33:01; [3]): 3160 nM
Kd (HLA-A*11:01; [3]): 1660 nM

DVDTSASEIK
Kd (HLA-A*31:01; [3]): ≥ 27100 nM
Kd (HLA-A*68:01; [3]): 135 nM
Kd (HLA-A*03:01; [3]): 4430 nM
Kd (HLA-A*33:01; [3]): 18800 nM
Kd (HLA-A*11:01; [3]): 2630 nM

DVISRRDQR
Kd (HLA-A*68:01; [2]): 66.3 nM
Kd (HLA-A*33:01; [2]): 68.2 nM

EATQLATLR
Kd (HLA-A*68:01; [6]): 15.9 nM
Kd (HLA-A*33:01; [6]): 94.7 nM

EITAEWLWR
Kd (HLA-A*68:01; [7]): 114 nM
Kd (HLA-A*33:01; [7]): 11.4 nM

ELGFNYPEY
Kd (HLA-A*31:01; [3]): ≥ 77900 nM
Kd (HLA-A*68:01; [3]): 8850 nM
Kd (HLA-A*03:01; [3]): ≥ 39700 nM
Kd (HLA-A*33:01; [3]): ≥ 77700 nM
Kd (HLA-A*11:01; [3]): ≥ 66700 nM

ELYDTSPTKR
Kd (HLA-A*31:01; [3]): 1850 nM
Kd (HLA-A*68:01; [3]): 1.52 nM
Kd (HLA-A*03:01; [3]): 756 nM
Kd (HLA-A*33:01; [3]): 142 nM
Kd (HLA-A*11:01; [3]): 10500 nM

EMGANFRADR
Kd (HLA-A*31:01; [2]): ≥ 70000 nM

ENKAWLVHR
Kd (HLA-A*33:01; source organism: Dengue virus 2 16681-PDK53): 7 nM

ESKAKQLCY
Kd (HLA-A*31:01; [3]): ≥ 77900 nM
Kd (HLA-A*68:01; [3]): 15900 nM
Kd (HLA-A*03:01; [3]): ≥ 78000 nM
Kd (HLA-A*33:01; [3]): ≥ 77700 nM
Kd (HLA-A*11:01; [3]): ≥ 77900 nM

FAEESYTYYY
Kd (HLA-A*31:01; [3]): ≥ 70000 nM
Kd (HLA-A*68:01; [3]): 543 nM
Kd (HLA-A*03:01; [3]): ≥ 26300 nM
Kd (HLA-A*33:01; [3]): ≥ 70000 nM
Kd (HLA-A*11:01; [3]): 916 nM

FFLMVLLIPE
Kd (HLA-A*33:01; [2]): 208 nM

FLAVFQSATK
Kd (HLA-A*31:01; [4]): 10800 nM
Kd (HLA-A*68:01; [4]): 8.81 nM
Kd (HLA-A*03:01; [4]): 34.3 nM
Kd (HLA-A*33:01; [4]): ≥ 22400 nM
Kd (HLA-A*11:01; [4]): 1610 nM

FLRSIAMLK
Kd (HLA-A*31:01; [3]): 153 nM
Kd (HLA-A*68:01; [3]): 107 nM
Kd (HLA-A*03:01; [3]): 2.04 nM
Kd (HLA-A*33:01; [3]): 611 nM
Kd (HLA-A*11:01; [3]): 213 nM

FTDPASIAAR
Kd (HLA-A*68:01; [8]): 25.6 nM
Kd (HLA-A*33:01; [8]): 125 nM

FVCRRTFVDR
Kd (HLA-A*31:01; [2]): ≥ 70000 nM
Kd (HLA-A*33:01; [2]): 65.2 nM

FVNEKYCIIK
Kd (HLA-A*31:01; [3]): 6150 nM
Kd (HLA-A*68:01; [3]): 275 nM
Kd (HLA-A*03:01; [3]): ≥ 48600 nM
Kd (HLA-A*33:01; [3]): 3920 nM
Kd (HLA-A*11:01; [3]): 226 nM

GFKNGSRHSH
Kd (HLA-A*31:01; [9]): 882 nM
Kd (HLA-A*68:01; [9]): 2960 nM
Kd (HLA-A*03:01; [9]): 14400 nM
Kd (HLA-A*11:01; [9]): ≥ 42700 nM

GLLDSIKMIY
Kd (HLA-A*31:01; [3]): 1540 nM
Kd (HLA-A*68:01; [3]): 818 nM
Kd (HLA-A*03:01; [3]): 45.9 nM
Kd (HLA-A*33:01; [3]): 2910 nM
Kd (HLA-A*11:01; [3]): 3410 nM

GMDYEEYKSK
Kd (HLA-A*31:01; [3]): 1690 nM
Kd (HLA-A*68:01; [3]): ≥ 21100 nM
Kd (HLA-A*03:01; [3]): 29.7 nM
Kd (HLA-A*33:01; [3]): ≥ 36000 nM
Kd (HLA-A*11:01; [3]): 249 nM

GSLITCAKFK
Kd (HLA-A*11:01; source organism: Dengue virus 1 Nauru/West Pac/1974): 244 nM

GTVMDIISRK
Kd (HLA-A*11:01; [6]): 47.6 nM

GVLARWGTFK
Kd (HLA-A*03:01; [6]): 5.23 nM
Kd (HLA-A*11:01; [6]): 74.4 nM

GVTSSGAIYK
Kd (HLA-A*31:01; [3]): 1350 nM
Kd (HLA-A*68:01; [3]): 81.3 nM
Kd (HLA-A*03:01; [3]): 181 nM
Kd (HLA-A*33:01; [3]): ≥ 10000 nM
Kd (HLA-A*11:01; [3]): 45.9 nM

HLKCRLRMDK
Kd (HLA-A*03:01; [8]): 119 nM

HYDQENPYR
Kd (HLA-A*33:01; [1]): 7870 nM

IFNEDTSYY
Kd (HLA-A*31:01; [3]): ≥ 77900 nM
Kd (HLA-A*68:01; [3]): ≥ 20000 nM
Kd (HLA-A*03:01; [3]): 6000 nM
Kd (HLA-A*33:01; [3]): ≥ 77700 nM
Kd (HLA-A*11:01; [3]): 6890 nM

IFVSLVKKNK
Kd (HLA-A*31:01; [3]): 69.1 nM
Kd (HLA-A*68:01; [3]): 56.3 nM
Kd (HLA-A*03:01; [3]): 365 nM
Kd (HLA-A*33:01; [3]): 55 nM
Kd (HLA-A*11:01; [3]): 1860 nM

IILARNEEGR
Kd (HLA-A*31:01; [3]): 71.2 nM
Kd (HLA-A*68:01; [3]): 1160 nM
Kd (HLA-A*03:01; [3]): 9520 nM
Kd (HLA-A*33:01; [3]): 344 nM
Kd (HLA-A*11:01; [3]): ≥ 24300 nM

ILKINSVKY
Kd (HLA-A*31:01; [3]): 1310 nM
Kd (HLA-A*68:01; [3]): 1820 nM
Kd (HLA-A*03:01; [3]): 831 nM
Kd (HLA-A*33:01; [3]): 12900 nM
Kd (HLA-A*11:01; [3]): 16200 nM

ILKRWGTIK
Kd (HLA-A*03:01; [8]): 14.2 nM

ILQLIRHGR
Kd (HLA-A*31:01; [3]): 0.975 nM
Kd (HLA-A*68:01; [3]): 75.2 nM
Kd (HLA-A*03:01; [3]): 1430 nM
Kd (HLA-A*33:01; [3]): 2.62 nM
Kd (HLA-A*11:01; [3]): 725 nM
